Reference: article PMC7949032, “The KH domain facilitates the substrate specificity and unwinding processivity of DDX43 helicase”
Substitutions are numbered along the chain they refer to.

What was measured:
DDX43 KH-126 = target: T1, DDX43 KH-126 (UniProt Q9NXZ2); experiment: filter binding; conditions: EMSA: 40 mM Tris pH 8.0, 0.5 mM MgCl2, 15 mM NaCl, 0.01% NP-40, 0.1 mM DTT, 1 mg/ml BSA, no ATP, ice 30 min (Fig 2A legend: RT); filter binding: 25 mM Tris pH …
T1 sequence: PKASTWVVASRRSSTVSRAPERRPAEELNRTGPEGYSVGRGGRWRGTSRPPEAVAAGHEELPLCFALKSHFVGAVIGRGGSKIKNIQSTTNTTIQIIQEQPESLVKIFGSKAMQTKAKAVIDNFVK

[1] = target: DDX43 KH-domain protein KH-126 (human) (UniProt Q9NXZ2); experiment: SEC; Sephacryl S-100 high-resolution column calibrated with molecular mass standards; buffer A (25 mM Tris pH 8.0, 0.15 M NaCl, 100 uM Tween 20, 10% glycerol), 0.5 ml/min
DDX43 KH-89 [2] = target: T2, DDX43 KH-89 (UniProt Q9NXZ2 54-142); experiment: NMR HSQC titration; negligible shift changes; EMSA: 40 mM Tris pH 8.0, 0.5 mM MgCl2, 15 mM NaCl, 0.01% NP-40, 0.1 mM DTT, 1 mg/ml BSA, no ATP, ice 30 min (Fig 2A legend: RT); filter binding: 25 mM Tris pH 7.5, 25 mM KOAc, 1 mM Mg(OAc)2, 1 mM DTT, 0.1 mg/ml BSA, 37 C; NMR: 25 mM Hepes pH 7.4, 250 mM NaCl, 5% D2O, temperature not stated; conditions: protein: recombinant; His removed by thrombin for NMR; 15N
T2 sequence: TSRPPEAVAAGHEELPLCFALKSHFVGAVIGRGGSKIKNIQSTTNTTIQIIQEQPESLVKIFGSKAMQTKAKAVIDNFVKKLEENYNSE

DDX43 KH-89 [3] = target: T2, DDX43 KH-89; experiment: EMSA; EMSA: 40 mM Tris pH 8.0, 0.5 mM MgCl2, 15 mM NaCl, 0.01% NP-40, 0.1 mM DTT, 1 mg/ml BSA, no ATP, ice 30 min (Fig 2A legend: RT); filter binding: 25 mM Tris pH 7.5, 25 mM KOAc, 1 mM Mg(OAc)2, 1 mM DTT, 0.1 mg/ml BSA, 37 C; NMR: 25 mM Hepes pH 7.4, 250 mM NaCl, 5% D2O, temperature not stated; conditions: protein: recombinant; His removed by thrombin for NMR; 15N; label: 5'-32P
DDX43 KH-89 [4] = target: T2, DDX43 KH-89; experiment: NMR HSQC titration; EMSA: 40 mM Tris pH 8.0, 0.5 mM MgCl2, 15 mM NaCl, 0.01% NP-40, 0.1 mM DTT, 1 mg/ml BSA, no ATP, ice 30 min (Fig 2A legend: RT); filter binding: 25 mM Tris pH 7.5, 25 mM KOAc, 1 mM Mg(OAc)2, 1 mM DTT, 0.1 mg/ml BSA, 37 C; NMR: 25 mM Hepes pH 7.4, 250 mM NaCl, 5% D2O, temperature not stated; conditions: protein: recombinant; His removed by thrombin for NMR; 15N
DDX43 KH-89 A81G = target: T3, DDX43 KH-89 A81G (UniProt Q9NXZ2 54-142, A81G); experiment: NMR HSQC titration; fewer residues shifted, larger shifts than WT; EMSA: 40 mM Tris pH 8.0, 0.5 mM MgCl2, 15 mM NaCl, 0.01% NP-40, 0.1 mM DTT, 1 mg/ml BSA, no ATP, ice 30 min (Fig 2A legend: RT); filter binding: 25 mM Tris pH 7.5, 25 mM KOAc, 1 mM Mg(OAc)2, 1 mM DTT, 0.1 mg/ml BSA, 37 C; NMR: 25 mM Hepes pH 7.4, 250 mM NaCl, 5% D2O, temperature not stated; conditions: protein: recombinant; tags: His cleaved by thrombin
T3 sequence: T2 sequence with A28G

DDX43 full-length WT [5] = target: T4, DDX43 full-length WT (UniProt Q9NXZ2 1-648); experiment: EMSA; no ATP; preferred RNA; EMSA: 40 mM Tris pH 8.0, 0.5 mM MgCl2, 15 mM NaCl, 0.01% NP-40, 0.1 mM DTT, 1 mg/ml BSA, no ATP, ice 30 min (Fig 2A legend: RT); filter binding: 25 mM Tris pH 7.5, 25 mM KOAc, 1 mM Mg(OAc)2, 1 mM DTT, 0.1 mg/ml BSA, 37 C; NMR: 25 mM Hepes pH 7.4, 250 mM NaCl, 5% D2O, temperature not stated; conditions: protein: recombinant; (pET28a); label: 5'-32P; 13 bp, 5' overhang 15 nt on strand 1
DDX43 full-length WT [6] = target: T4, DDX43 full-length WT; experiment: EMSA; no ATP; preferred DNA; EMSA: 40 mM Tris pH 8.0, 0.5 mM MgCl2, 15 mM NaCl, 0.01% NP-40, 0.1 mM DTT, 1 mg/ml BSA, no ATP, ice 30 min (Fig 2A legend: RT); filter binding: 25 mM Tris pH 7.5, 25 mM KOAc, 1 mM Mg(OAc)2, 1 mM DTT, 0.1 mg/ml BSA, 37 C; NMR: 25 mM Hepes pH 7.4, 250 mM NaCl, 5% D2O, temperature not stated; conditions: protein: recombinant; (pET28a); label: 5'-32P; 20 bp, 3' overhang 25 nt on strand 1

T4 sequence (Q9NXZ2 whole entry): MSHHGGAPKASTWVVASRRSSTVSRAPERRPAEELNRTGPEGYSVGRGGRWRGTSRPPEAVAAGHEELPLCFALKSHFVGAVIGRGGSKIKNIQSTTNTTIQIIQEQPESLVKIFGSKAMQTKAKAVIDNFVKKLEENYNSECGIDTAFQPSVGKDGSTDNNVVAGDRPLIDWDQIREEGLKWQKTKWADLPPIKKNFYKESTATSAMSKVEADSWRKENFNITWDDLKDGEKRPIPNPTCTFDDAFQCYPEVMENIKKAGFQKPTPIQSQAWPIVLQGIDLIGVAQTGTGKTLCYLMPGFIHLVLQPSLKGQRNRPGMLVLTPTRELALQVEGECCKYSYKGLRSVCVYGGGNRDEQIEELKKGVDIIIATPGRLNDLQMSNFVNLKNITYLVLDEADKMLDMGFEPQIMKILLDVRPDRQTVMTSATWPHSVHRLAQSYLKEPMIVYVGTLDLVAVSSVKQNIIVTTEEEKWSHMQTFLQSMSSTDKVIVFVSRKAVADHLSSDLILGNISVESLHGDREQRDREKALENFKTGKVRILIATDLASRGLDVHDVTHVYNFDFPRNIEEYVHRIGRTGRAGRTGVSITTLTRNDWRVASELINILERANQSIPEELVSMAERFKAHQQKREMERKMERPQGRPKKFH

## UUUUUUUUUUUUUUUGGUGAUGGUGUAUUGAGUGGGAUGCAUGCA / UGCAUGCAUCCCACUCAAUACACCAUCACCUUUUUUUUUUUUUUU [forked dsRNA 30/15]
DDX43 KH-126
  Kd: 2.5 µM

## GAGCTACCAGCTACCCCGTATGTCAGAGAG [ssDNA 30-mer]
DDX43 KH-126
  Kd: 1.41 µM

## UUUUUUUUUUUUUUUUUUUUUUUUUUUUUU [rU30]
DDX43 KH-126
  Kd: 1.48 µM

## DDX43 KH-domain protein KH-126 (from UniProt Q9NXZ2 67-128) (domain or fragment)
[1]
  stoichiometry N: 2

## TTTTTTTTTTTTTTTTTTTTTTTTTTTTTT [dT30]
DDX43 KH-126
  Kd: 2.45 µM

## TTTTTTTTTTTTTTTGGTGATGGTGTATTGAGTGGGATGCATGCA / TGCATGCATCCCACTCAATACACCATCACCTTTTTTTTTTTTTTT [fork dsDNA 30/15]
DDX43 KH-126
  Kd: 1.29 µM

## GAGCUACCAGCUACCCCGUAUGUCAGAGAG [ssRNA 30-mer]
DDX43 KH-126
  Kd: 3.01 µM

## GGGGG (ssDNA) [dG5]
DDX43 KH-89 [2]
  binding result: no binding

## GAGCTACCAGCTACCCCGTATGTCAGAGAG (ssDNA) [ssDNA 30-mer]
DDX43 KH-89 [3]
  binding result: binds

## CCCCC (ssDNA) [dC5]
DDX43 KH-89 [4]
  Kd: 2100 ± 400 µM

## CTCTC (ssDNA)
DDX43 KH-89 [4]
  binding result: binds

## TTTTT (ssDNA) [dT5]
DDX43 KH-89 A81G
  binding result: binds
DDX43 KH-89 [4]
  Kd: 1500 ± 290 µM

## GAGCUACCAGCUACCCCGUAUGUCAGAGAG (ssRNA) [ssRNA 30-mer]
DDX43 KH-89 [3]
  binding result: binds

## GTTGT (ssDNA)
DDX43 KH-89 [4]
  Kd: 44 µM

## AAAAA (ssDNA) [dA5]
DDX43 KH-89 [2]
  binding result: no binding

## UUUUU (ssRNA) [rU5]
DDX43 KH-89 [4]
  Kd: 1800 ± 200 µM

B1: 13-bp dsRNA 5' UUGU-repeat tail (dsRNA)
RNA 1: UGUUGUUGUUGUUGUACCGUAAAGACGC
RNA 2: GCGUCUUUACGGU
DDX43 full-length WT [5]
  binding result: binds

## TTTTTTTTTT (ssDNA) [dT10]
DDX43 KH-89 [4]
  Kd: 174 ± 90 µM

## CGCGC (ssDNA)
DDX43 KH-89 [4]
  Kd: 266 µM

## TGTGT (ssDNA)
DDX43 KH-89 [4]
  Kd: 78 µM

B2: 20-bp dsDNA 3' TTGT-repeat tail (dsDNA)
DNA 1: CCACTCAATACACCATCACCTTGTTGTTGTTGTTGTTGTTGTTGT
DNA 2: GGTGATGGTGTATTGAGTGG
DDX43 full-length WT [6]
  binding result: binds
